Experimental data as given in patent publication US20060030020A1.

B1: λV′sac phage particles grown on MC8 (su+), reference phage (protein)
chain: MPVPNPTMPVKGAGTTLWVYKGSGDPYANPLSDVDWSRLAKVKDLTPGELTAESYDDSYLDDEDADWTATGQGQKSAGDTSFTLAWMPGEQGQQALLAWFNEGDTRAYKIRFPNGTVDVFRGWVSSIGKAVTAKEVITRTVKVTNVGRPSMAEDRSTVTAATGMTVTPASTSVVKG
B2: λBPA phage particles grown on MC8 (su+), displaying the BPA (Bauhinia purpurea lectin) multimer (pV′-BPA fusion protein assembled with BPA monomers) (protein, part only; not given: amber residue and junction residues, part only)
chain, part: MPVPNPTMPVKGAGTTLWVYKGSGDPYANPLSDVDWSRLAKVKDLTPGELTAESYDDSYLDDEDADWTATGQGQKSAGDTSFTLAWMPGEQGQQALLAWFNEGDTRAYKIRFPNGTVDVFRGWVSSIGKAVTAKEVITRTVKVTNVGRPSMAEDRSTVTAATGMTVTPASTSVVKGSWPVRPTPTPTTPTPTPTPTPTPTPTVGPIVTQETATSSTLTGFTFPNFWSNTQENGTEIIFLGNATYTPGALRLTRIGEDGIPLKSNAGQASYSRPVFLWDSTGHVASFYTSFSFIVRSIDVPHITADGFAFFLAPVDSSVKDYGGCLGLFRYKTATDPSKNQVVAVEFDTWPNTEWSDLRYPHIGINVNSTVSVATTRWDNDDAYVTKSTAHITYDATSKIITVLLTYDNGRHYQLSHVVDLPKILPERVRIGFSGGTGFNETQYILSWSFTSTLNSTKISALTQKLRSSASYSSM
chain: TSSTLTGFTFPNFWSNTQENGTEIIFLGNATYTPGALRLTRIGEDGIPLKSNAGQASYSRPVFLWDSTGHVASFYTSFSFIVRSIDVPHITADGFAFFLAPVDSSVKDYGGCLGLFRYKTATDPSKNQVVAVEFDTWPNTEWSDLRYPHIGINVNSTVSVATTRWDNDDAYVTKSTAHITYDATSKIITVLLTYDNGRHYQLSHVVDLPKILPERVRIGFSGGTGFNETQYILSWSFTSTLNSTKISALTQKLRSSASYSSM

Legend:
[1] = target: mouse monoclonal anti-β-gal antibody (Promega, Madison, Wis.); assay: affinity selection on wells coated with anti-β-gal antibody; input λβ-gal/λV′sac 10^3/10^9
[2] = target: mouse monoclonal anti-β-gal antibody (Promega, Madison, Wis.); assay: affinity selection on wells coated with anti-β-gal antibody; input λβ-gal/λV′sac 10^4/10^10
[3] = target: mouse monoclonal anti-β-gal antibody (Promega, Madison, Wis.); assay: affinity selection on wells coated with anti-β-gal antibody, collagenase elution, plaques counted on X-gal; input λβ-gal/λV′sac 10^4/10^7
[4] = target: mouse monoclonal anti-β-gal antibody (Promega, Madison, Wis.); assay: affinity selection on wells coated with anti-β-gal antibody; input λβ-gal/λV′sac 10^4/10^8
[5] = target: mouse monoclonal anti-β-gal antibody (Promega, Madison, Wis.); assay: affinity selection on wells coated with anti-β-gal antibody; input λβ-gal/λV′sac 10^3/10^8
[6] = target: mouse monoclonal anti-β-gal antibody (Promega, Madison, Wis.); assay: affinity selection on wells coated with anti-β-gal antibody, collagenase elution, plaques counted on X-gal; input λβ-gal/λV′sac 10^3/10^8
[7] = target: mouse monoclonal anti-β-gal antibody (Promega, Madison, Wis.); assay: affinity selection on wells coated with anti-β-gal antibody; input λβ-gal/λV′sac 10^4/10^7
[8] = target: mouse monoclonal anti-β-gal antibody (Promega, Madison, Wis.); assay: affinity selection on wells coated with anti-β-gal antibody, collagenase elution, plaques counted on X-gal; input λβ-gal/λV′sac 10^3/10^7
[9] = target: mouse monoclonal anti-β-gal antibody (Promega, Madison, Wis.); assay: affinity selection on wells coated with anti-β-gal antibody, collagenase elution, plaques counted on X-gal; input λβ-gal/λV′sac 10^4/10^10
[10] = target: mouse monoclonal anti-β-gal antibody (Promega, Madison, Wis.); assay: affinity selection on wells coated with anti-β-gal antibody; input λβ-gal/λV′sac 10^3/10^6
[11] = target: mouse monoclonal anti-β-gal antibody (Promega, Madison, Wis.); assay: affinity selection on wells coated with anti-β-gal antibody, collagenase elution, plaques counted on X-gal; input λβ-gal/λV′sac 10^4/10^9
[12] = target: mouse monoclonal anti-β-gal antibody (Promega, Madison, Wis.); assay: affinity selection on wells coated with anti-β-gal antibody, collagenase elution, plaques counted on X-gal; input λβ-gal/λV′sac 10^3/10^10
[13] = target: mouse monoclonal anti-β-gal antibody (Promega, Madison, Wis.); assay: affinity selection on wells coated with anti-β-gal antibody, collagenase elution, plaques counted on X-gal; input λβ-gal/λV′sac 10^3/10^6
[14] = target: mouse monoclonal anti-β-gal antibody (Promega, Madison, Wis.); assay: affinity selection on wells coated with anti-β-gal antibody, collagenase elution, plaques counted on X-gal; input λβ-gal/λV′sac 10^4/10^8
[15] = target: mouse monoclonal anti-β-gal antibody (Promega, Madison, Wis.); assay: single round of affinity selection on wells coated with anti-β-gal antibodies
[16] = target: mouse monoclonal anti-β-gal antibody (Promega, Madison, Wis.); assay: affinity selection on wells coated with anti-β-gal antibody, collagenase elution, plaques counted on X-gal; input λβ-gal/λV′sac 10^3/10^9
[17] = target: mouse monoclonal anti-β-gal antibody (Promega, Madison, Wis.); assay: affinity selection on wells coated with anti-β-gal antibody; input λβ-gal/λV′sac 10^3/10^10
[18] = target: mouse monoclonal anti-β-gal antibody (Promega, Madison, Wis.); assay: affinity selection on wells coated with anti-β-gal antibody; input λβ-gal/λV′sac 10^4/10^9
[19] = target: mouse monoclonal anti-β-gal antibody (Promega, Madison, Wis.); assay: affinity selection on wells coated with anti-β-gal antibody; input λβ-gal/λV′sac 10^3/10^7
[20] = target: mucin of bovine submaxillary glands (Sigma, St. Louis, Mo.) (bovine); assay: affinity selection on wells coated with mucin, 1 mM CaCl2, collagenase elution

Row | Molecule | Enrichment (fold over λV′sac) [1] | Enrichment (fold over λV′sac) [2] | Output Phage [3] [plaques] | Enrichment (fold over λV′sac) [4] | Enrichment (fold over λV′sac) [5] | Output Phage [6] [plaques] | Enrichment (fold over λV′sac) [7] | Output Phage [8] [plaques] | Output Phage [9] [plaques] | Enrichment (fold over λV′sac) [10] | Output Phage [11] [plaques] | Output Phage [12] [plaques] | Output Phage [13] [plaques] | Output Phage [14] [plaques] | average efficiency of recovery (% of the input phage) [15] | Output Phage [16] [plaques] | Enrichment (fold over λV′sac) [17] | Enrichment (fold over λV′sac) [18] | Enrichment (fold over λV′sac) [19] | recovery of input phage (% of input phage) [20]
1 | λβ-gal phage particles grown on MC8 (su+), displaying the β-gal multimer (pV′-β-gal fusion protein assembled with β-gal monomers) on the phage tail (from UniProt P00722 10-1024) | 280000 | 770000 | 96 | 170000 | 80000 | 8 | 16000 | 10 | 129 | > 8000 | 108 | 5 | 8 | 168 | 1 | 99 | 530000 | 300000 | 2000 | 
2 | B1 |  |  | 6 |  |  | 11 |  | 5 | 162 |  | 39 | 106 | 0 | 25 |  | 32 |  |  |  | 
3 | B2 |  |  |  |  |  |  |  |  |  |  |  |  |  |  |  |  |  |  |  | 0.01
